Experimental findings from the MegaScale stability set (Tsuboyama et al. 2023) are described below.

Sequences and labels used below:
B1: EHEE_rd2_1257 (parent)
chain: EEERTFTNEEEARKAKKEAEKRGLRVTVTKDGTTWRVRIG

In the data set the parent is B1. The data set is described as follows: folding stability dG (cDNA display proteolysis); higher = more stable. To be noted: PBS, room temperature.
For the variant EEERTFTNEEEARKAKKEAEKRGLRVTVTKDLTTWRVRIG, the “folding stability dG” value came to 0.595 kcal/mol.
As for EEERTFTNEEEARKAKKEAEKRGLRVTVTKDQTTWRVRIG, the figure is 0.902 kcal/mol.
For EEERTFTNEEEARKAKKEAEKRGLRVTVTKDATTWRVRIG the value was 0.985 kcal/mol; for EEERTFTNEEEARKAKKEAEKRGLRVTVTKDGTTWRVYIG, 2.17 kcal/mol; for EEERTFTNEEEARKAKKEAEKRGLRVTVTKDGTTWRVEIG, 1.48 kcal/mol.
For EDERTFTNEEEARKAKKEAEKRGLRVTVTKDGTTWRVRIG the value was 1.75 kcal/mol.
For the variant EHERTFTNEEEARKAKKEAEKRGLRVTVTKDGTTWRVRIG, the “folding stability dG” value amounted to 2.12 kcal/mol.
For EFERTFTNEEEARKAKKEAEKRGLRVTVTKDGTTWRVRIG the value was 2.6 kcal/mol; for ETERTFTNEEEARKAKKEAEKRGLRVTVTKDGTTWRVRIG, 2.18 kcal/mol; for EELRTFTNEEEARKAKKEAEKRGLRVTVTKDGTTWRVRIG, 2 kcal/mol.
As for EEGRTFTNEEEARKAKKEAEKRGLRVTVTKDGTTWRVRIG, the figure is 1.28 kcal/mol.
As for EEERTFTNEEEAIKAKKEAEKRGLRVTVTKDGTTWRVRIG, the figure is 2.74 kcal/mol.
Take EEERTFTNEEEALKAKKEAEKRGLRVTVTKDGTTWRVRIG: the “folding stability dG” value was found to be 2.96 kcal/mol.
For EEERTFTNEEEAEKAKKEAEKRGLRVTVTKDGTTWRVRIG the value was 2.22 kcal/mol; for EEERTFTNEEEAAKAKKEAEKRGLRVTVTKDGTTWRVRIG, 1.93 kcal/mol; for EEERTFTNEEEANKAKKEAEKRGLRVTVTKDGTTWRVRIG, 2.35 kcal/mol.
As to EEERTFTNTEEARKAKKEAEKRGLRVTVTKDGTTWRVRIG, the “folding stability dG” value was determined as 0.236 kcal/mol.
As for EEERTFTNIEEARKAKKEAEKRGLRVTVTKDGTTWRVRIG, the figure is 1.96 kcal/mol; as for EEERTFTNWEEARKAKKEAEKRGLRVTVTKDGTTWRVRIG, 2.9 kcal/mol; as for EEERTFTNFEEARKAKKEAEKRGLRVTVTKDGTTWRVRIG, 2.37 kcal/mol.
As for EEERTFTNEEEARKAKKEAVKRGLRVTVTKDGTTWRVRIG, the figure is 1.39 kcal/mol; as for EEERTFTNEEETRKAKKEAEKRGLRVTVTKDGTTWRVRIG, 0.316 kcal/mol; as for EEERTFTNEEESRKAKKEAEKRGLRVTVTKDGTTWRVRIG, 0.218 kcal/mol.
As for EEERTFTNEEEARKAKKEAEKRGLRVTVTKDGKTWRVRIG, the figure is 2.05 kcal/mol; as for EEERTFTNEEEARKAKKEAEKRGLRVTVTKDGITWRVRIG, 1.89 kcal/mol.
Take EEERTFTNEEEARKAKKEAEKRGLRVTVTKDGGTWRVRIG: the “folding stability dG” value was found to be 2.28 kcal/mol.
As for EEERTFTNEEEARKAKKEAEKRGLRVTVTKDGHTWRVRIG, the figure is 2.11 kcal/mol; as for EEERTFRNEEEARKAKKEAEKRGLRVTVTKDGTTWRVRIG, 1.58 kcal/mol; as for EEERTFLNEEEARKAKKEAEKRGLRVTVTKDGTTWRVRIG, 1.79 kcal/mol.
Regarding EEERTFANEEEARKAKKEAEKRGLRVTVTKDGTTWRVRIG, the “folding stability dG” value was 1.87 kcal/mol.
Take EEERTFYNEEEARKAKKEAEKRGLRVTVTKDGTTWRVRIG: the “folding stability dG” value amounted to 2.06 kcal/mol.
As for EEERTFTNEEEARKAKKEAEDRGLRVTVTKDGTTWRVRIG, the figure is 2.25 kcal/mol.
Regarding EEERTFTNEEEARKAKKEAEWRGLRVTVTKDGTTWRVRIG, the “folding stability dG” value turned out to be 1.71 kcal/mol.
For EEERTFTNEEEARKAKKEAEKRGLRVTVTKGGTTWRVRIG the value was 0.303 kcal/mol; for EEERTFTNEEEARKAKKEAEKRGLRVTVTKQGTTWRVRIG, 1.7 kcal/mol.
As for EEERTFTNEEEARKAKKEAEKRGLRVTVTKEGTTWRVRIG, the figure is 2.15 kcal/mol; as for EEERTFTNEEEARKAKKEAEKRGLRVTVTKRGTTWRVRIG, 1.32 kcal/mol; as for EEERTFTNEEEARKAKKEAEKRGLRVTVTKTGTTWRVRIG, 1.76 kcal/mol.
EEERTFTNEEEARKAKKEAEKRGLRVTVTKIGTTWRVRIG: the “folding stability dG” value turned out to be 2.22 kcal/mol.
As for EEERTFTNEEEARKAKKEAEKRGLRVTVTKYGTTWRVRIG, the figure is 1.75 kcal/mol; as for EEERTFTNEEEARKAKKEAEKRGLRVTVTKNGTTWRVRIG, 1.57 kcal/mol; as for EEERTFTNEEEARKAKKEAEKRGLRVTVTKHGTTWRVRIG, 1.78 kcal/mol.
As for EEERTFTNEEEARKAKKEAEKRGLRVTVTKMGTTWRVRIG, the figure is 1.74 kcal/mol.
For EEERTFTNEEEARKAKKEAEKRGLDVTVTKDGTTWRVRIG the value was 1.23 kcal/mol; for EEERTFTNEEEARKAKKEAEKRGLLVTVTKDGTTWRVRIG, 1.87 kcal/mol; for EEERTFTNEEEARKAKKEAEKRGLMVTVTKDGTTWRVRIG, 1.81 kcal/mol.
EEERTFTNEEEARKAKKEAEKRGLRVTVTKDGTTWGVRIG: the “folding stability dG” value was -0.199 kcal/mol.
As for EEERTFTNEEEARKAKKEAEKRGLRVTVTKDGTTWTVRIG, the figure is 2.15 kcal/mol; as for EEERTFTNEEEARKAKKEAEKRGLRVTVTKDGTTWFVRIG, 2.23 kcal/mol; as for EEERTFTNEEEARKAKKEAEKRGLRVTVTKDGTTWRIRIG, 1.7 kcal/mol.
As for EEERTFTNEEEARKAKKEAEKRGLRVTVTKDGTTWRLRIG, the figure is 2.17 kcal/mol; as for EEERTFTNEEEARKAKKEAEKRGLRVTVTKDGTTWRFRIG, 0.864 kcal/mol; as for EEERTFTNEEEARIAKKEAEKRGLRVTVTKDGTTWRVRIG, 2 kcal/mol.
For EEERTFTNEEEARFAKKEAEKRGLRVTVTKDGTTWRVRIG the value was 1.94 kcal/mol.
With EEERTFTNEEEARDAKKEAEKRGLRVTVTKDGTTWRVRIG, the “folding stability dG” value turned out to be 1.86 kcal/mol.
As for EEERTFTNEEEARKAKKEAEKRGLRVTQTKDGTTWRVRIG, the figure is -0.917 kcal/mol.
As for EEERTFTNEEEARKAKKEAEKRGLRVTFTKDGTTWRVRIG, the figure is 1.45 kcal/mol; as for EEERTFTNEEEARKAKKEAEKRGLRVTMTKDGTTWRVRIG, 2.37 kcal/mol; as for EEERTFTNEEEARKAKDEAEKRGLRVTVTKDGTTWRVRIG, 2.44 kcal/mol.
As for EEERTFTNEEEARKAKTEAEKRGLRVTVTKDGTTWRVRIG, the figure is 2.11 kcal/mol; as for EEERTFTNEEEARKAKLEAEKRGLRVTVTKDGTTWRVRIG, 2.45 kcal/mol; as for EEERTFTNEEEARKRKKEAEKRGLRVTVTKDGTTWRVRIG, 0.547 kcal/mol.
